From the supplement of paper PMC12764529
± gives the half width of the 95% confidence interval.

How the values were obtained:
[1] = folding stability dG unfold from chymotrypsin proteolysis; higher = more stable
Outline: (§1)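 Sequencing followed digestion of designed mini-proteins with trypsin and chymotrypsin, each at 11 concentrations in threefold dilutions together with a no-protease condition. The mini-proteins were under 80 residues, had no cysteine, sat in a PA-tagged cDNA display construct, and were kept only if AlphaFold2 dimer inter-PAE was above 15. From the counts, Bayesian fitting gave K50, and unfolding free energy was derived against a sequence-predicted unfolded-state K50 and a shared folded-state K50, per protease or combined.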

[2] = folding stability dG unfold (combined trypsin and chymotrypsin); higher = more stable
Outline: as §1

[3] = folding stability dG unfold from trypsin proteolysis; higher = more stable
Outline: as §1

Row | Sequence | folding stability dG unfold [1] [kcal/mol] | folding stability dG unfold [2] [kcal/mol] | folding stability dG unfold [3] [kcal/mol]
1 | SETETITVEVTMPAEELANMSAEELAARLREAFPDLKITSISITVEEVEDPETGERLVRVTVTITVERVPSA [r9_1189_TrROS_Hall] | 3.4 ± 0.068 | 4.31 ± 0.15 | 4.28 ± 0.11
2 | SAGGSKTVTVTVRIKVTNEDGEELTVTARLTYNEETGEVTVEIEMSPEALERLRELFPDVKIEIYPSAGGSA [r2_409_TrROS_Hall] | 3.09 ± 0.13 | 3.9 ± 0.32 | 4.08 ± 0.22
3 | SAGGSAGGSAGGLEEIRENGEALVFYPDGRVYRVDLKTGKITPPPGFKPENIVRVVFVKKSAGGSAGGSAGG [r7_566_TrMRF] | 0.0292 ± 0.14 | 0.301 ± 0.076 | 0.493 ± 0.1
4 | SATGKLAELLEEAFPDRPIASAEILGVEPLPDGRPALRFLLTFEDGSKLVVTVTSADHPEVLEAARENQSAG [r14_143_TrMRF] | 2.913 ± 0.014 | 2.96 ± 0.041 | 3.04 ± 0.064
5 | SAGGSGDPNAAPVVVKVTIDITRPTADDSYVTSPVELTLLESEVDEFLAELEKEPDLELKVEVTLESAGGSA [r2_270_JUSTAS] | 1.25 ± 0.026 | 1.07 ± 0.11 | 0.829 ± 0.063
6 | SAGGSAGGSAGKVVLYLPGDGTAWVLKVGDGEAVLEAEPEKVEELLEKIPGTEAVPVPGLSAGGSAGGSAGG [r11_57_TrMRF] | -0.0929 ± 0.23 | 0.425 ± 0.12 | 0.652 ± 0.026
7 | SAGGKTIVIELTPEEVEELLKKLLEELKKKAEENPDAKITIVITTPDGRTYTITIDLKTGKITIEELPSAGG [r13_216_TrROS_Hall] | 3.93 ± 0.13 | 3.43 ± 0.1 | 2.39 ± 0.051
8 | SAGGSAGGSAKKIVIKVKPGMTEEEILEEIAKKLGLKPEKIKKIEIERNKDGYLYVTIEIESAGGSAGGSAG [r3_26_TrROS_Hall] | 3.87 ± 0.065 | 3.82 ± 0.083 | 3.66 ± 0.16
9 | SAGGSAGGSAGNLKVVDISIWRTDDMRYIMFKLEGDGLTIMIWVPPKEPGKIQIMIFPLDSAGGSAGGSAGG [r11_1046_TrROS] | 4.51 ± 0.1 | 4.34 ± 0.16 | 3.49 ± 0.23
10 | SAGGSAGGDGLELKLTFTIPVTARSPLGGSYPVYLRLTLTYRLDDPRWELDLYALDPNGNWYPVSAGGSAGG [r6_393_TrMRF] | 5.12 ± 0.092 | 4.84 ± 0.1 | 3.66 ± 0.18
11 | SAGGSAGGSMKPLGQGDFEDPDGWKIKISMYPDGWFRIEIYDKNGKPKETIPVPANDLPDILKSAGGSAGGS [r12_664_TrROS] | 1.43 ± 0.053 | 1.21 ± 0.064 | 0.664 ± 0.027
12 | SAGGSAGGSEAKIELEYDEETNTLTVRIEVDGELYEERIEVTIEPAPPPPPPVEVVVVELPEESAGGSAGGS [r12_70_TrROS_Hall] | 2.71 ± 0.21 | 2.4 ± 0.49 | 1.56 ± 0.55
13 | SAGKPKVKVKKITVTITYDPETGTITIEATIEIDGKTIKLTITITLPEELRNLKPGDTITIEITIIIEPSAG [r5_714_TrROS_Hall] | 2.86 ± 0.13 | 3.15 ± 0.12 | 3.4 ± 0.17
14 | SAGGMNISIEPIGRDNDRWYYMITFPGDANEIKDFIEEFLPPGLPIKVKVLEVDPENGHVTVMIEIPRSAGG [r13_491_TrROS] | 3.58 ± 0.043 | 3.24 ± 0.058 | 2.21 ± 0.042
15 | SAGGSGSQEVDIDFKFPPNFNMDELAKKIEELPGIDIKPDRYDPENGTYKITINVNDPQAVREIIRSAGGSA [r2_305_TrROS] | -0.497 ± 0.69 | -0.483 ± 0.5 | 0.0473 ± 0.16
16 | SMGSTTVTVELEFEVEDPSVFPPDTTVDVPEEVIEKLRAEGYTVTEITTTVEPTPSGRVRVRVTMTVRVDSA [r9_465_JUSTAS] | 2.77 ± 0.049 | 2.93 ± 0.095 | 2.95 ± 0.05
17 | SAGGSAGGSAGGSEGAPIRVTLTGTRTETRTRPDGSPVTDSGTDTVEFTLDLYDPEKSGSAGGSAGGSAGGS [r4_450_TrMRF] | -0.0249 ± 0.13 | -0.363 ± 0.21 | -1.4 ± 0.66
18 | SAMVIPAEVRLPGTPEEVLEKAREFADTLAARFRELGFEVVAVELEEIEPGEAVVRLRIVVARPDEEFPSAG [r14_973_TrMRF] | 2.79 ± 0.03 | 2.85 ± 0.069 | 2.75 ± 0.086
19 | SAGGSAGGSAGMEISTKTLPGDKYELTITLPDSKGTPITVTITFTSEEEAKKKLEEIIKKSAGGSAGGSAGG [r11_819_JUSTAS] | 2.7 ± 0.11 | 2.27 ± 0.084 | 1.29 ± 0.068
20 | SAGGSAGGMTFVDLGEDKPVVIEVPPRPETGLYPVVIHPPEKPVFVEVESPEEAIEAAEKLVEGSAGGSAGG [r6_715_TrMRF] | 0.788 ± 0.045 | 1.12 ± 0.045 | 1.42 ± 0.051
21 | SAGGSAGGMKVTTEGNAAGTNTVTVSYPDGSSVTRTLAPDDVVEVPVGGEVVLTVTVTANPDLPSAGGSAGG [r6_583_JUSTAS] | 0.0101 ± 0.061 | -0.0541 ± 0.12 | -0.0728 ± 0.1
